This note sets out measurements from US20140134176A1 (Pfizer, published 2014).

One may read the kon as a measure of how fast the partners come together. A lower kon goes with slow association. One may read the Kd as the constant that tells how readily two partners part at equilibrium. Low values mean tighter binding, high ones weaker binding.

Test [1] deals with T1, human PDGF-AA (human, UniProt P04085 87-211, limits assumed). The test is described as follows: SPR (Biacore), antibody captured. Here is the method: (§1) In order to test the specificity and cross species reactivity, the binding affinities of three MOR8457 IgG variants, MOR8457-IKR-hIgG1-3m, MOR8457-mIgG1, and MOR8457-GL-hIgG1-3m, to different human PDGF ligands, including human PDGF-AA, -AB, -DD, as well as rat PDGF-BB (all obtained from R&D systems, Minneapolis, Minn.) and mouse PDGF-BB (Invitrogen, Carlsbad, Calif.) were tested. Briefly, anti-human or anti-mouse IgG (GE Healthcare) antibodies were immobilized in adjacent flow cells of a CM5 sensor chip between 8000-10,000 resonance units (RU) using amine coupling as directed by the manufacturer. Antibodies were diluted into PBS-NET (10 mM Phosphate pH 7.4, 287 mM NaCl, 2.7 mM KCl, 3.2 mM EDTA, 0.01% Tween 20) to 1 μg/mL and injected independently over the respective anti-human or anti-mouse surface for 10 seconds resulting in a stable anti-PDGF surface between 50-100 RU. PDGF proteins were diluted to 1 nM in PBS-NET and serially diluted two-fold to 0.25 nM. Each concentration of PDGF was then injected over the antibody surface for 2 minutes at a flow rate of 100 μl/min. The complex was allowed to dissociate for 10 minutes. The surface was regenerated with a 30 second injection of 10 mM magnesium chloride leaving the surface ready for another round of anti-PDGF antibody capture and PDGF binding kinetics. Kinetic data were double referenced (Myszka et al., 1999, J. Mol. Recognit. 12 279) using scrubber2 software (Bio-Logic Software), then fit to a 1:1 binding model using Biacore evaluation software version 4.1. The results shown were an average of three independent binding studies.
(Surface plasmon resonance follows binding to a sensor surface in real time, without labels.)

The target of test [2] is human PDGF-DD (human, UniProt Q9GZP0 250-370, limits assumed). The test is described as follows: SPR (Biacore), antibody captured. The method, then:
as §1

Test [3] addresses T2, human PDGF-BB (human, UniProt P01127 82-190).
T2 construct: Recombinant human PDGF-BB homodimer, bought (Biosource PHG0043; R&D Systems); also called hPDGF-BB; huBB
The test is described as follows: SPR (Biacore 2000), antibody captured via anti-mouse IgG, PDGF injected. Here is the method: (§2) Anti-human (A-D, I-K) or anti-mouse (E-H) IgG antibodies were immobilized in flow cells of CM5 sensor chips. 1 μg/mL of MOR8457-IKR-hIgG1-3m (A-D), MOR8457-mIgG1 (E-H) or MOR8457-GL-hIgG1-3m (I-K) was injected independently over the respective anti-human or anti-mouse surface for 10 seconds resulting in a stable anti-PDGF surface between 50-100 RU. Different concentration of PDGF proteins, 0.25, 0.5, and 1 nM, was then injected over the antibody surface for 2 minutes at a flow rate of 100 μl/min for binding. The complex was allowed to dissociate for 10 minutes. The surface was regenerated with a 30 second injection of 10 mM magnesium chloride leaving the surface ready for another round of anti-PDGF antibody capture and PDGF binding kinetics. Each of these three antibodies bound tightly to human (A, E, I), mouse (B, F, J) and rat (C, G, K) PDGF-BB. MOR8457-IKR-hIgG1-3m (D) and MOR8457-mIgG1 (H) bound to human PDGF-AB. Each sensorgram shown is one representative of three independent experiments.
as §1, with “kinetics.” for “kinetics. Kinetic data were double referenced (Myszka et al., 1999, J. Mol. Recognit. 12 279) using scrubber2 software (Bio-Logic Software), then fit to a 1:1 binding model using Biacore evaluation software version 4.1. The results shown were an average of three independent binding studies.”

Test [4] deals with T3, mouse PDGF-BB (mouse, UniProt P31240 82-190).
T3 construct: also called muBB; Mu PDGF-BB
T3 sequence (P31240 82-190 limits assumed): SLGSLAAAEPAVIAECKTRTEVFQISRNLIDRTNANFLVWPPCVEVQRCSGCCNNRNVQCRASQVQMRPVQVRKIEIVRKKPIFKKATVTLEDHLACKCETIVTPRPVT
The test is described as above. The method, then:
as §2
as §1, with “kinetics.” for “kinetics. Kinetic data were double referenced (Myszka et al., 1999, J. Mol. Recognit. 12 279) using scrubber2 software (Bio-Logic Software), then fit to a 1:1 binding model using Biacore evaluation software version 4.1. The results shown were an average of three independent binding studies.”

In test [5] the target is T4, rat PDGF-BB (rat, UniProt Q05028 74-182).
T4 construct: also called ratBB
T4 sequence (Q05028 74-182 limits assumed): as the sequence (P31240 82-190 limits assumed) above, with I83V, I102V counted along it
The test is described as above. Here is the method: as §2
as §1, with “kinetics.” for “kinetics. Kinetic data were double referenced (Myszka et al., 1999, J. Mol. Recognit. 12 279) using scrubber2 software (Bio-Logic Software), then fit to a 1:1 binding model using Biacore evaluation software version 4.1. The results shown were an average of three independent binding studies.”

Test [6] concerns the target T5, human PDGF-AB (human, UniProt P04085 87-211, limits assumed).
T5 construct: Heterodimer of PDGF-A and PDGF-B, bought; also called huAB; Hu PDGF-AB
The test is described as above. The method, then: as §2
as §1, with “kinetics.” for “kinetics. Kinetic data were double referenced (Myszka et al., 1999, J. Mol. Recognit. 12 279) using scrubber2 software (Bio-Logic Software), then fit to a 1:1 binding model using Biacore evaluation software version 4.1. The results shown were an average of three independent binding studies.”

The target in test [7] is T2, human PDGF-BB. The experiment in a line: SPR (Biacore 2000), antibody captured via anti-mouse IgG, PDGF injected; off rate beyond instrument limit. The method, then: as §2
as §1, with “kinetics.” for “kinetics. Kinetic data were double referenced (Myszka et al., 1999, J. Mol. Recognit. 12 279) using scrubber2 software (Bio-Logic Software), then fit to a 1:1 binding model using Biacore evaluation software version 4.1. The results shown were an average of three independent binding studies.”

In test [8] the target is T3, mouse PDGF-BB. Described as above. The method, then: as §2
as §1, with “kinetics.” for “kinetics. Kinetic data were double referenced (Myszka et al., 1999, J. Mol. Recognit. 12 279) using scrubber2 software (Bio-Logic Software), then fit to a 1:1 binding model using Biacore evaluation software version 4.1. The results shown were an average of three independent binding studies.”

Test [9] concerns the target T4, rat PDGF-BB. The test is described as above. Here is the method: as §2
as §1, with “kinetics.” for “kinetics. Kinetic data were double referenced (Myszka et al., 1999, J. Mol. Recognit. 12 279) using scrubber2 software (Bio-Logic Software), then fit to a 1:1 binding model using Biacore evaluation software version 4.1. The results shown were an average of three independent binding studies.”

Test [10] has as its target T5, human PDGF-AB. The description is as above. The method, then:
as §2
as §1, with “kinetics.” for “kinetics. Kinetic data were double referenced (Myszka et al., 1999, J. Mol. Recognit. 12 279) using scrubber2 software (Bio-Logic Software), then fit to a 1:1 binding model using Biacore evaluation software version 4.1. The results shown were an average of three independent binding studies.”

The target of test [11] is T2, human PDGF-BB. The test is described as follows: SPR (Biacore) competition in solution: MOR8457-mIgG1 serially diluted, mixed with human PDGF-BB, 20 h at 2-8 C, mixture injected over PDGFRβ-hIgG1 captured on anti-human IgG; blocked partner PDGFRβ-hIgG1. Here is the method:
MOR8457-mIgG1 was serially diluted in PBS then mixed with […] of human PDGF-BB and incubated for 20 hours at 2-8° C. to reach equilibrium as indicated by the [brackets]. Each MOR8457-mIgG1 and PDGF-BB dilution mixture was then injected over the surface of PDGFRβ-hIgG1 captured by anti-human IgG1 on a CM5 chip. […] Data shown are from one representative experiment of two independent experiments.
Because of the complexity of the 2:1 binding stoichiometry, and also to avoid any potential artifacts introduced by sequential binding on the chip, the competitive binding was further confirmed by neutralizing PDGF-BB with MOR8457 in solution as illustrated by the diagram shown in FIG. 5A. MOR8457-mIgG1 was serially diluted in PBS then mixed with […] of human PDGF-BB and incubated for 20 hours at 2-8° C. to reach equilibrium. Each MOR8457-mIgG1 and PDGF-BB dilution mixture shown between [brackets] in FIG. 5A, was then injected over the surface of PDGFRβ-hIgG1 captured by anti-human IgG1 on a CM5 chip. FIG. 5B depicts a graph showing the concentration response curve of MOR8457 inhibition.

The target in test [12] is T1, human PDGF-AA. The experiment in a line: ELISA.
In test [13] the target is T2, human PDGF-BB. The experiment in a line: cell-based or functional assay.

T2 sequence (P01127 82-190 limits assumed): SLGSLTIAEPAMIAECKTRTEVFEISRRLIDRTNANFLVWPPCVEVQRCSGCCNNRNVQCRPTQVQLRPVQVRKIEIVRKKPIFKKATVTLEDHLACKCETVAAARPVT
T5 sequence (chain, as listed by the source limits assumed, chain 2 of 2, other chains not shown): as the sequence (P01127 82-190 limits assumed) above
human PDGF-DD, sequence (Q9GZP0 250-370 limits assumed): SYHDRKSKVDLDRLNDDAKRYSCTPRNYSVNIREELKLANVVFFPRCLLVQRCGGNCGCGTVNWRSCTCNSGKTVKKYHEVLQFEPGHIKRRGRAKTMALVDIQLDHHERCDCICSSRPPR

B1: MOR8457-mIgG1 (antibody)
heavy: EVQLVESGGGLVQPGGSLRLSCAASGFTFSSYAMSWVRQAPGKGLEWVSYISDDGSLKYYADSVKGRFTISRDNSKNTLYLQMNSLRAEDTAVYYCARHPYWYGGQLDLWGQGTLVTVSSAKTTPPSVYPLAPGSAAQTNSVTLGCLVKGYFPEPVTVTWNSGSLSSGVHTFPAVLQSDLYTLSSSVTVPSSTWPSETVTCNVAHPASSTKVDKKIVPRDCGCKPCICTVPEVSSVFIFPPKPKDVLTITLTPKVTCVVVDISKDDPEVQFSWFVDDVEVHTAQTQPREEQFNSTFRSVSELPIMHQDWLNGKEFKCRVNSAAFPAPIEKTISKTKGRPKAPQVYTIPPPKEQMAKDKVSLTCMITDFFPEDITVEWQWNGQPAENYKNTQPIMDTDGSYFVYSKLNVQKSNWEAGNTFTCSVLHEGLHNHHTEKSLSHSPGK
light: SYELTQPPSVSVAPGQTARISCSGDSLGSYFVHWYQQKPGQAPVLVIYDDSNRPSGIPERFSGSNSGNTATLTISGTQAEDEADYYCSAFTHNSDVFGGGTKLTVLQPKSSPSVTLFPPSSEELETNKATLVCTITDFYPGVVTVDWFTKVDGTPVTQGMETTQPSKQSNNKYMASSYLTLTARAWERHSSYSCQVTHEGHTVEFTKSLSRADCS
notes: Original MOR8457 VH + mouse wild type IgG1 constant; original VL + mouse wild type lambda constant
As for B1, the binding result in test [1] and in [2] was “no binding (tested: 0.25-1 nM PDGF)” in each case. Also, the association rate constant (kon) in [3] was found to be 1.12e+07 M⁻¹ s⁻¹; in [4], 2.48e+07 M⁻¹ s⁻¹; in test [5], 1.42e+07 M⁻¹ s⁻¹; in test [6], 5.9e+06 M⁻¹ s⁻¹. The equilibrium dissociation constant (Kd) in test [7], in [8], in [9] and in [10] was under 10 pM each time. Besides, the “IC50 (read off the curve)” value in test [11] is about 40 pM.

B2: MOR8457-Fab (Fab, V domains shown)
VH: EVQLVESGGGLVQPGGSLRLSCAASGFTFSSYAMSWVRQAPGKGLEWVSYISDDGSLKYYADSVKGRFTISRDNSKNTLYLQMNSLRAEDTAVYYCARHPYWYGGQLDLWGQGTLVTVSS
VL: SYELTQPPSVSVAPGQTARISCSGDSLGSYFVHWYQQKPGQAPVLVIYDDSNRPSGIPERFSGSNSGNTATLTISGTQAEDEADYYCSAFTHNSDVFGGGTKLTVL
notes: Fab format (HuCAL GOLD, expressed in E. coli); also called Fab-MOR8457
Consider B2, for which the binding result in test [12] was “no binding”. The “IC50, inhibition of PDGF-BB-induced PDGF-Rβ Tyr751 phosphorylation (PAE PDGF-Rβ cells)” value in test [13] stood at 320 pM.
